Laboratory results from patent publication US20260242735A1 (UNIVERSIT T BASEL, published 2026).

Assays:
Assay in all cases: alanine scan, flow cytometry, HEK293-T;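 also: antibody binding to each alanine-substituted CD33 mutant expressed transiently in HEK293-T, read as fluorescence minus background, mean of duplicates, relative to wild-type CD33 set as 100%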
[1] = target: human CD33 A217S (human, UniProt P20138 18-364)
[2] = target: human CD33 N237A (human, UniProt P20138 18-364)
[3] = target: human CD33 Q236A (human, UniProt P20138 18-364)
[4] = target: human CD33 L197A (human, UniProt P20138 18-364)
[5] = target: human CD33 P235A (human, UniProt P20138 18-364)
[6] = target: human CD33 T232A (human, UniProt P20138 18-364)
[7] = target: human CD33 G172A (human, UniProt P20138 18-364)
[8] = target: human CD33 L187A (human, UniProt P20138 18-364)
[9] = target: human CD33 T208A (human, UniProt P20138 18-364)
[10] = target: human CD33 G218A (human, UniProt P20138 18-364)
[11] = target: human CD33 Q213A (human, UniProt P20138 18-364)
[12] = target: human CD33 T239A (human, UniProt P20138 18-364)
[13] = target: human CD33 T240A (human, UniProt P20138 18-364)
[14] = target: human CD33 W179A (human, UniProt P20138 18-364)
[15] = target: human CD33 L180A (human, UniProt P20138 18-364)
[16] = target: human CD33 T211A (human, UniProt P20138 18-364)
[17] = target: human CD33 N230A (human, UniProt P20138 18-364)
[18] = target: human CD33 S195A (human, UniProt P20138 18-364)
[19] = target: human CD33 R202A (human, UniProt P20138 18-364)
[20] = target: human CD33 R190A (human, UniProt P20138 18-364)
[21] = target: T1, human CD33 I198A (human, UniProt P20138 18-364)
T1 construct: the '-,' is not explained

[22] = target: human CD33 S194A (human, UniProt P20138 18-364)
[23] = target: human CD33 T173A (human, UniProt P20138 18-364)
[24] = target: human CD33 T303A (human, UniProt P20138 18-364)
[25] = target: human CD33 R291A (human, UniProt P20138 18-364)
[26] = target: human CD33 A289S (human, UniProt P20138 18-364)
[27] = target: human CD33 R287A (human, UniProt P20138 18-364)
[28] = target: human CD33 T253A (human, UniProt P20138 18-364)
[29] = target: human CD33 V257A (human, UniProt P20138 18-364)
[30] = target: human CD33 A269S (human, UniProt P20138 18-364)
[31] = target: human CD33 F279A (human, UniProt P20138 18-364)
[32] = target: human CD33 T302A (human, UniProt P20138 18-364)
[33] = target: human CD33 V258A (human, UniProt P20138 18-364)
[34] = target: human CD33 N297A (human, UniProt P20138 18-364)
[35] = target: human CD33 A293S (human, UniProt P20138 18-364)
[36] = target: human CD33 D298A (human, UniProt P20138 18-364)

Chain of human CD33 T208A (P20138 18-364 T208A limits assumed): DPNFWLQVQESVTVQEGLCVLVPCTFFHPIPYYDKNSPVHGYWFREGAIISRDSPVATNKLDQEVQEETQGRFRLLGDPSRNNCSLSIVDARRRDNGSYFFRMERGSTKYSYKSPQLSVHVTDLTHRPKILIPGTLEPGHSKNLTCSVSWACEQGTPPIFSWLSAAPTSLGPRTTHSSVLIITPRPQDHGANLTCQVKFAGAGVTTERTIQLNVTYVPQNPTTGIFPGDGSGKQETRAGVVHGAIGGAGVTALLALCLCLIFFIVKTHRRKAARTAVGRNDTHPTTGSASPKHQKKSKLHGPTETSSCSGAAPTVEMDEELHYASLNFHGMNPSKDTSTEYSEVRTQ
Chain of human CD33 N230A (P20138 18-364 N230A limits assumed): as the sequence (P20138 18-364 T208A limits assumed) above, with A191T, N213A counted along it
Chain of human CD33 R202A (P20138 18-364 R202A limits assumed): as the sequence (P20138 18-364 T208A limits assumed) above, with R185A, A191T counted along it
Chain of human CD33 A217S (P20138 18-364 A217S limits assumed): as the sequence (P20138 18-364 T208A limits assumed) above, with A191T, A200S counted along it
T1 sequence (P20138 18-364 I198A limits assumed): as the sequence (P20138 18-364 T208A limits assumed) above, with I181A, A191T counted along it
Chain of human CD33 L180A (P20138 18-364 L180A limits assumed): as the sequence (P20138 18-364 T208A limits assumed) above, with L163A, A191T counted along it
Chain of human CD33 T239A (P20138 18-364 T239A limits assumed): as the sequence (P20138 18-364 T208A limits assumed) above, with A191T, T222A counted along it
Chain of human CD33 P235A (P20138 18-364 P235A limits assumed): as the sequence (P20138 18-364 T208A limits assumed) above, with A191T, P218A counted along it
Chain of human CD33 T211A (P20138 18-364 T211A limits assumed): as the sequence (P20138 18-364 T208A limits assumed) above, with A191T, T194A counted along it
Chain of human CD33 W179A (P20138 18-364 W179A limits assumed): as the sequence (P20138 18-364 T208A limits assumed) above, with W162A, A191T counted along it
Chain of human CD33 L197A (P20138 18-364 L197A limits assumed): as the sequence (P20138 18-364 T208A limits assumed) above, with L180A, A191T counted along it
Chain of human CD33 R190A (P20138 18-364 R190A limits assumed): as the sequence (P20138 18-364 T208A limits assumed) above, with R173A, A191T counted along it
Chain of human CD33 T173A (P20138 18-364 T173A limits assumed): as the sequence (P20138 18-364 T208A limits assumed) above, with T156A, A191T counted along it
Chain of human CD33 G172A (P20138 18-364 G172A limits assumed): as the sequence (P20138 18-364 T208A limits assumed) above, with G155A, A191T counted along it

Mean % WT Binding [1] [%] | Mean % WT Binding [2] [%] | Mean % WT Binding [3] [%] | Mean % WT Binding [4] [%] | Mean % WT Binding [5] [%] | Mean % WT Binding [6] [%] | Mean % WT Binding [7] [%] | Mean % WT Binding [8] [%] | Mean % WT Binding [9] [%] | Mean % WT Binding [10] [%] | Mean % WT Binding [11] [%] | Mean % WT Binding [12] [%] | Mean % WT Binding [13] [%] | Mean % WT Binding [14] [%] | Mean % WT Binding [15] [%] | Mean % WT Binding [16] [%] | Mean % WT Binding [17] [%] | Mean % WT Binding [18] [%] | Mean % WT Binding [19] [%] | Mean % WT Binding [20] [%] | Binder | other results
80.2 | 98.7 | 89.5 | 95.5 | 81.4 | 76.6 | 86 | 92.3 | 101 | 79.2 | 95.3 | 79.7 | 111 | 93.5 | 91.3 | 82.4 | 83.6 | 86.9 | 86.7 | 96.6 | Refmab #1 (antibody, V domains shown, In the alanine scan antibodies were used as IgG or Fab; also called hP67.6) VH: EVQLVQSGAEVKKPGSSVKVSCKASGYTITDSNIHWVRQAPGQSLEWIGYIYPYNGGTDYNQKFKNRATLTVDNPTNTAYMELSSLRSEDTAFYYCVNGNPWLAYWGQGTLVTVSS VL: DIQLTQSPSTLSASVGDRVTITCRASESLDNYGIRFLTWFQQKPGKAPKLLMYAASNQGSGVPSRFSGSGSGTEFTLTISSLQPDDFATYYCQQTKEVPWSFGQGTKVEVK | Mean % WT Binding [21]: 86.7%; Mean % WT Binding [22]: 93.7%; Mean % WT Binding [23]: 106%
 |  |  |  |  |  |  |  |  |  |  |  |  |  |  |  |  |  |  |  | Refmab #1 (antibody, V domains shown, The alanine scan used IgG or Fab; also called hP67.6) VH: EVQLVQSGAEVKKPGSSVKVSCKASGYTITDSNIHWVRQAPGQSLEWIGYIYPYNGGTDYNQKFKNRATLTVDNPTNTAYMELSSLRSEDTAFYYCVNGNPWLAYWGQGTLVTVSS VL: DIQLTQSPSTLSASVGDRVTITCRASESLDNYGIRFLTWFQQKPGKAPKLLMYAASNQGSGVPSRFSGSGSGTEFTLTISSLQPDDFATYYCQQTKEVPWSFGQGTKVEVK | Mean % WT Binding [24]: 94 % WT binding; Mean % WT Binding [25]: 97.8 % WT binding; Mean % WT Binding [26]: 97.1 % WT binding; Mean % WT Binding [27]: 94.7 % WT binding; Mean % WT Binding [28]: 94.5 % WT binding; Mean % WT Binding [29]: 102 % WT binding; Mean % WT Binding [30]: 107 % WT binding; Mean % WT Binding [31]: 104 % WT binding; Mean % WT Binding [32]: 95 % WT binding; Mean % WT Binding [33]: 99.8 % WT binding; Mean % WT Binding [34]: 94.9 % WT binding; Mean % WT Binding [35]: 90.6 % WT binding; Mean % WT Binding [36]: 97.8 % WT binding
109 | 112 | 111 | 125 | 108 | 84.8 | 109 | 144 | 117 | 124 | 115 | 111 | 111 | 113 | 118 | 111 | 96.4 | 119 | 112 | 114 | Refmab #2 (antibody, V domains shown, In the alanine scan antibodies were used as IgG or Fab) VH: QVQLVQSGAEVKKPGSSVKVSCKASGGTFSDYAISWVRQAPGQGLEWMGRIIPILGVADYAQKFQGRVTITADKSTRTAYMELSSLRSEDTAVYYCARNWADAFDIWGQGTMVTVSS VL: DIQLTQSPSSLSASVGDRVTITCRASQGISSVLAWYQQKPGKAPKLLIYDASSLESGVPSRFSGSGSGTDFTLTISSLQPEDFATYYCQQFDSSITFGQGTKLEIK | Mean % WT Binding [21]: 114%; Mean % WT Binding [22]: 112%; Mean % WT Binding [23]: 134%
 |  |  |  |  |  |  |  |  |  |  |  |  |  |  |  |  |  |  |  | Refmab #2 (antibody, V domains shown, The alanine scan used IgG or Fab) VH: QVQLVQSGAEVKKPGSSVKVSCKASGGTFSDYAISWVRQAPGQGLEWMGRIIPILGVADYAQKFQGRVTITADKSTRTAYMELSSLRSEDTAVYYCARNWADAFDIWGQGTMVTVSS VL: DIQLTQSPSSLSASVGDRVTITCRASQGISSVLAWYQQKPGKAPKLLIYDASSLESGVPSRFSGSGSGTDFTLTISSLQPEDFATYYCQQFDSSITFGQGTKLEIK | Mean % WT Binding [24]: 96.7 % WT binding; Mean % WT Binding [25]: 122 % WT binding; Mean % WT Binding [26]: 111 % WT binding; Mean % WT Binding [27]: 110 % WT binding; Mean % WT Binding [28]: 104 % WT binding; Mean % WT Binding [29]: 108 % WT binding; Mean % WT Binding [30]: 111 % WT binding; Mean % WT Binding [31]: 116 % WT binding; Mean % WT Binding [32]: 90.7 % WT binding; Mean % WT Binding [33]: 111 % WT binding; Mean % WT Binding [34]: 108 % WT binding; Mean % WT Binding [35]: 114 % WT binding; Mean % WT Binding [36]: 81.5 % WT binding
148 | 85.6 | 104 | 91.4 | 120 | 127 | 107 | 95.5 | 83.6 | 143 | 135 | 105 | 97.9 | 103 | 102 | 96.2 | 109 | 95.2 | 128 | 124 | Refmab #3 (antibody, V domains shown, In the alanine scan antibodies were used as IgG or Fab) VH: QVQLVQSGAEVKKPGSSVKVSCKASGYTFTDYNMHWVRQAPGQGLEWIGYIYPYNGGTGYNQKFKSKATITADESTNTAYMELSSLRSEDTAVYYCARGRPAMDYWGQGTLVTVSS VL: DIQMTQSPSSLSASVGDRVTITCRASESVDNYGISFMNWFQQKPGKAPKLLIYAASNQGSGVPSRFSGSGSGTDFTLTISSLQPDDFATYYCQQSKEVPWTFGQGTKVEIK | Mean % WT Binding [21]: 91.2%; Mean % WT Binding [22]: 101%; Mean % WT Binding [23]: 97%
61.1 | 72.9 | 103 | 95.3 | 101 | 57.4 | 90.7 | 108 | 108 | 102 | 103 | 102 | 76.8 | 83.1 | 101 | 79.4 | 63.5 | 112 | 88.7 | 109 | Refmab #4 (antibody, V domains shown, In the alanine scan antibodies were used as IgG or Fab) VH: QVQLVQSGAEVKKPGESVKVSCKASGYTFTNYGMNWVKQAPGQGLEWMGWINTYTGEPTYADKFQGRVTMTTDTSTSTAYMEIRNLGGDDTAVYYCARWSWSDGYYVYFDYWGQGTSVTVSS VL: DIVMTQSPDSLTVSLGERTTINCKSSQSVLDSSTNKNSLAWYQQKPGQPPKLLLSWASTRESGIPDRFSGSGSGTDFTLTIDSPQPEDSATYYCQQSAHFPITFGQGTRLEIK | Mean % WT Binding [21]: 94.4%; Mean % WT Binding [22]: 79%; Mean % WT Binding [23]: 119%
